Test results: the supplement of paper PMC10567573

B1: KRT13 (parent)
chain: TPGIDLTRVLAEMREQYEAMAERN
B2: FBXO34 (parent)
chain: PRYREDPCKQCKKKYVKGDVSLCR

Variants of: B1
Test: protein stability index of a GFP-peptide fusion (GPS, HEK-293T) (PSI 1-6); higher = more stable
Settings: c terminus: a fixed tail appended
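Note: lentivirally expressed fusions sorted by FACS into six bins by GFP to DsRed ratio, PSI derived from sequencing read proportions per bin multiplied by bin number.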

Protein stability index: each site, then its substitutions
Y17: E 4.6; A 5.29; V 4.29; H 4.76; M 4.3; C 4.23; T 5.8
R23: S 4.56; F 3.78; Y 3.61; V 3.01; K 4.03; P 4.62; G 3.98; E 4.9; I 2.94
L10: Y 4.4; S 4.87; N 5.71; W 4.09; T 5.01; G 5.23; P 5.31; V 4.8; I 3.25; C 4.22
A11: D 4.01; I 3.51; S 4.61; H 3.95; Q 2.85; F 3.7; Y 3.74; K 4.23; T 3.88
A21: V 3.55; Y 4.5; Q 4.54; H 4.07; G 2.79; C 4.29; F 3.98
M20: P 4.81; W 5.32; G 4.22; H 4.32; I 3.88; F 3.42; E 4.49; Y 4.62
L6: Q 5.01; C 4.79; H 3.99; Y 3.37; V 3.88; R 4.84; A 4.15; G 4.98; I 4.13; K 4.7; T 5.4
E18: A 4.23; V 4.39; Y 3.87; T 3.06; S 3.96
E15: G 3.82; M 2.91; Y 2.42; D 4.24; P 3.83; I 2.85; W 2.07
A19: Q 3.48; F 4.13; V 3.23; Y 3.76; N 4.28; K 3.53; W 3.4; T 4.16; I 3.73
T7: D 4.45; K 2.88; A 3.77; W 3.28; P 4.16; N 3.92; G 3.36; E 4.25
R14: S 3.74; W 4.01; L 2.42; M 3.69; C 3.04; P 4.42; F 3.65; H 3.61; D 5.07; A 2.08
E12: P 4.36; W 3.06; I 2.72; M 2.96; N 3.87; K 2.23
G3: N 3.12; F 2.28; E 2.78; L 2.81; R 3.39; I 3.38; H 3.35; Y 2.34
Q16: W 3.73; Y 4.01; H 3.31; V 3.82; R 4.84; F 3.21
D5: K 2.21; S 3.86; A 5.15; F 2.19; T 3.68; M 3.81; H 4.29; V 2.63
M13: P 3.3; D 5.36; K 4.24; S 4.7; Q 4.1; G 4.72; E 5.33; R 4.93
N24: W 4.55; F 4; S 4.51; A 3.56; I 4.63; P 4.07; G 4.87
I4: A 3.97; Q 3.72; K 3.45; N 2.62; F 3.63
V9: E 4.71; S 3.41; I 3.06; M 3.94; T 3.85
P2: C 3.36; K 3.79
R8: P 3.61; Q 4.15; L 2.64; M 4.01; W 3.25; K 4.69; A 4.26
E22: L 4.4; V 2.56; C 3.7; K 4.39; H 3.73; P 3.98; Y 3; A 4.08
T1: M 3.9; K 3.85; Y 4.34; P 4.16; G 4.59; F 3.27; L 2.71

Variants of: B2
Test: as above
Settings: c terminus: a fixed tail appended

Protein stability index: each site, then its substitutions
R24: N 3.46; H 3.42; Q 3.91; D 3.82; F 2.51; V 3.34; S 3.39; T 3.05; C 3.58; M 3.09; G 3.11; W 2.27; A 2.9; K 4.33; Y 2.87; P 4.39; E 4.08; L 2.52; I 2.46
C23: D 3.3; E 2.71; P 2.52; R 2.86; Y 2.11; K 3.29; W 1.85; G 2.88; Q 1.9; L 3.1; H 3.1; F 2.27; V 3.18; S 2.58; I 2.59; A 2.95; N 2.53; M 2.95; T 3.12
K17: L 1.96; N 2.77; V 2.69; D 2.52; W 2.72; I 2.21; G 2.61; F 2.04; M 2.39; Q 2.23; E 2.53; C 2.52; Y 2.29; S 2.19; A 2.89; T 2.67; R 2.59; P 2.83; H 3.2
S21: L 2.22; M 2.51; F 2.67; T 2.66; A 3.03; P 2.53; V 3.13; R 2.97; I 2.34; W 2.16; G 2.54; N 2.64; D 2.92; Q 3.14; K 2.87; E 2.83; Y 2.18; C 4.63; H 3.53
V16: S 2.93; R 3.4; Y 2.65; W 2.31; T 2.74
G18: W 2.3; M 2.18; S 2.92; R 3.31; Q 3.2; Y 2.35; P 3.13; T 2.5; A 2.54; E 3.17; F 2.16; K 2.69; V 2.46; L 2.25; D 2.86; H 3.23; I 2.35; C 2.94; N 2.92
V20: H 3.51; F 1.93; T 2.52; C 3.68; L 2.46; M 2.88; K 3.07; A 2.85; S 3.11; P 3.05; D 3.29; G 2.18; Q 3.31; W 2.06; Y 2.38; N 2.97; I 2.64; R 2.49; E 2.8
D19: L 2.43; Q 2.71; H 2.88; A 3.15; E 3.31; Y 2.56; T 2.97; K 3.14; V 2.07; N 3.52; I 3.18; F 2.23; G 2.63; R 3.41; W 2.56; P 2.66; S 2.38; C 3.07; M 2.84
L22: R 3.31; E 3.48; S 3.29; G 3.18; D 3.01; K 3.6; Q 2.32; Y 2.54; A 3.12; M 2.6; N 3.01; H 2.88; W 2.08; P 2.41; C 3.15; F 2.58; V 3.23; I 3.12; T 2.93
